Changes are numbered by the printed parent chain. Numbers in names are those of the source.
B1: variant PD-L2 IgV-Fc N24D (Fc fusion, not shown: a dimerising Fc or GST; small tags and cut ends)
chain: LFTVTVPKELYIIEHGSNVTLECDFDTGSHVNLGAITASLQKVENDTSPHRERATLLEEQLPLGKASFHIPQVQVRDEGQYQCIIIYGVAWDYKYLTLK
B2: variant PD-L2 IgV-Fc H15Q, K65R (Fc fusion, not shown: a dimerising Fc or GST; small tags and cut ends)
chain: B1 chain with H15Q, D24N, K65R
B3: variant PD-L2 IgV-Fc H15Q, T47A, Q72H, R76G (Fc fusion, not shown: a dimerising Fc or GST; small tags and cut ends)
chain: B1 chain with H15Q, D24N, T47A, Q72H, R76G
B4: variant PD-L2 IgV-Fc H15Q, S67L, R76G (Fc fusion, not shown: a dimerising Fc or GST; small tags and cut ends)
chain: B1 chain with H15Q, D24N, S67L, R76G
B5: variant PD-L2 IgV-Fc H15Q, R76G, I85F (SEQ ID NO 1500) (Fc fusion, not shown: a dimerising Fc or GST; small tags and cut ends)
chain: B1 chain with H15Q, D24N, R76G, I85F
B6: variant PD-L2 IgV-Fc H15Q, T47A, Q72H, R76G, I86T (Fc fusion, not shown: a dimerising Fc or GST; small tags and cut ends)
chain: B1 chain with H15Q, D24N, T47A, Q72H, R76G, I86T
B7: variant PD-L2 IgV-Fc S39I, V89D (Fc fusion, not shown: a dimerising Fc or GST; small tags and cut ends)
chain: B1 chain with D24N, S39I, V89D
B8: variant PD-L2 IgV-Fc N32D, S67L, V89D (Fc fusion, not shown: a dimerising Fc or GST; small tags and cut ends)
chain: B1 chain with D24N, N32D, S67L, V89D
B9: variant PD-L2 IgV-Fc S67L, I85F (Fc fusion, not shown: a dimerising Fc or GST; small tags and cut ends)
chain: B1 chain with D24N, S67L, I85F
B10: variant PD-L2 IgV-Fc H15Q, Q72H, V89D (Fc fusion, not shown: a dimerising Fc or GST; small tags and cut ends)
chain: B1 chain with H15Q, D24N, Q72H, V89D
B11: variant PD-L2 IgV-Fc H15Q, T47A, Q82R (Fc fusion, not shown: a dimerising Fc or GST; small tags and cut ends)
chain: B1 chain with H15Q, D24N, T47A, Q82R
B12: variant PD-L2 IgV-Fc Q82R, V89D (Fc fusion, not shown: a dimerising Fc or GST; small tags and cut ends)
chain: B1 chain with D24N, Q82R, V89D
B13: variant PD-L2 IgV-Fc I13V, Q72H, R76G, I86T (Fc fusion, not shown: a dimerising Fc or GST; small tags and cut ends)
chain: B1 chain with I13V, D24N, Q72H, R76G, I86T
B14: variant PD-L2 IgV-Fc S67L, I86T (Fc fusion, not shown: a dimerising Fc or GST; small tags and cut ends)
chain: B1 chain with D24N, S67L, I86T
B15: variant PD-L2 IgV-Fc I13V, H15Q, R76G, I85F (Fc fusion, not shown: a dimerising Fc or GST; small tags and cut ends)
chain: B1 chain with I13V, H15Q, D24N, R76G, I85F
B16: variant PD-L2 IgV-Fc H15Q, S67L, Q72H, R76G, V89D (Fc fusion, not shown: a dimerising Fc or GST; small tags and cut ends)
chain: B1 chain with H15Q, D24N, S67L, Q72H, R76G, V89D
B17: variant PD-L2 IgV-Fc H15Q, S39I, S67L, V89D (Fc fusion, not shown: a dimerising Fc or GST; small tags and cut ends)
chain: B1 chain with H15Q, D24N, S39I, S67L, V89D
B18: variant PD-L2 IgV-Fc I13V, H15Q, T47A, Q72H, R76G (Fc fusion, not shown: a dimerising Fc or GST; small tags and cut ends)
chain: B1 chain with I13V, H15Q, D24N, T47A, Q72H, R76G
B19: variant PD-L2 IgV-Fc I13V, S39I, E44D, Q82R, V89D (Fc fusion, not shown: a dimerising Fc or GST; small tags and cut ends)
chain: B1 chain with I13V, D24N, S39I, E44D, Q82R, V89D
B20: variant PD-L2 IgV-Fc H15Q, S67L, R76G, I85F (Fc fusion, not shown: a dimerising Fc or GST; small tags and cut ends)
chain: B1 chain with H15Q, D24N, S67L, R76G, I85F
B21: variant PD-L2 IgV-Fc H15Q, E44D, R76G, I85F (Fc fusion, not shown: a dimerising Fc or GST; small tags and cut ends)
chain: B1 chain with H15Q, D24N, E44D, R76G, I85F
B22: variant PD-L2 IgV-Fc E44D (Fc fusion, not shown: a dimerising Fc or GST; small tags and cut ends)
chain: B1 chain with D24N, E44D
B23: variant PD-L2 IgV-Fc V89D (Fc fusion, not shown: a dimerising Fc or GST; small tags and cut ends)
chain: B1 chain with D24N, V89D
B24: variant PD-L2 IgV-Fc S67L, V89D (Fc fusion, not shown: a dimerising Fc or GST; small tags and cut ends)
chain: B1 chain with D24N, S67L, V89D
B25: variant PD-L2 IgV-Fc H15Q, N32D, S67L, V89D (Fc fusion, not shown: a dimerising Fc or GST; small tags and cut ends)
chain: B1 chain with H15Q, D24N, N32D, S67L, V89D
B26: variant PD-L2 IgV-Fc E59G, Q82R (Fc fusion, not shown: a dimerising Fc or GST; small tags and cut ends)
chain: B1 chain with D24N, E59G, Q82R
B27: variant PD-L2 IgV-Fc I13V, E44D, Q82R, V89D (Fc fusion, not shown: a dimerising Fc or GST; small tags and cut ends)
chain: B1 chain with I13V, D24N, E44D, Q82R, V89D
B28: variant PD-L2 IgV-Fc I13V, H15Q, S67L, I86T (Fc fusion, not shown: a dimerising Fc or GST; small tags and cut ends)
chain: B1 chain with I13V, H15Q, D24N, S67L, I86T
B29: variant PD-L2 IgV-Fc I13V, H15Q, E44D, V89D (Fc fusion, not shown: a dimerising Fc or GST; small tags and cut ends)
chain: B1 chain with I13V, H15Q, D24N, E44D, V89D
B30: variant PD-L2 IgV-Fc H15Q (Fc fusion, not shown: a dimerising Fc or GST; small tags and cut ends)
chain: FTVTVPKELYIIEQGSNVTLECNFDTGSHVNLGAITASLQKVENDTSPHRERATLLEEQLPLGKASFHIPQVQVRDEGQYQCIIIYGVAWDYKYLTLK
B31: variant PD-L2 IgV-Fc I13V, S67L, Q82R, V89D (Fc fusion, not shown: a dimerising Fc or GST; small tags and cut ends)
chain: B30 chain with I12V, Q14H, S66L, Q81R, V88D
B32: variant PD-L2 IgV-Fc I13V, H15Q, T47A, Q82R (Fc fusion, not shown: a dimerising Fc or GST; small tags and cut ends)
chain: B30 chain with I12V, T46A, Q81R
B33: variant PD-L2 IgV-Fc I13V, H15Q, T47A, H69L, R76G, V89D (Fc fusion, not shown: a dimerising Fc or GST; small tags and cut ends)
chain: B30 chain with I12V, T46A, H68L, R75G, V88D
B34: variant PD-L2 IgV-Fc I13V, H15Q, S39I, E44D, S67L (Fc fusion, not shown: a dimerising Fc or GST; small tags and cut ends)
chain: B30 chain with I12V, S38I, E43D, S66L
B35: variant PD-L2 IgV-Fc E44D, S67L, Q72H, Q82R, V89D (Fc fusion, not shown: a dimerising Fc or GST; small tags and cut ends)
chain: B30 chain with Q14H, E43D, S66L, Q71H, Q81R, V88D
B36: variant PD-L2 IgV-Fc I13V, H15Q, T47A, Q82R, V89D (SEQ ID NO 1544) (Fc fusion, not shown: a dimerising Fc or GST; small tags and cut ends)
chain: B30 chain with I12V, T46A, Q81R, V88D
B37: variant PD-L2 IgV-Fc H15Q, V89D (Fc fusion, not shown: a dimerising Fc or GST; small tags and cut ends)
chain: B30 chain with V88D
B38: variant PD-L2 IgV-Fc I13V, H15Q, Q82R, V89D (Fc fusion, not shown: a dimerising Fc or GST; small tags and cut ends)
chain: B30 chain with I12V, Q81R, V88D
B39: variant PD-L2 IgV-Fc I13V, H15Q, R76G, D77N, Q82R, V89D (Fc fusion, not shown: a dimerising Fc or GST; small tags and cut ends)
chain: B30 chain with I12V, R75G, D76N, Q81R, V88D
B40: variant PD-L2 IgV-Fc H15Q, T47A, H69L, Q82R, V89D (Fc fusion, not shown: a dimerising Fc or GST; small tags and cut ends)
chain: B30 chain with T46A, H68L, Q81R, V88D
B41: variant PD-L2 IgV-Fc H15Q, T47A (Fc fusion, not shown: a dimerising Fc or GST; small tags and cut ends)
chain: B30 chain with T46A
B42: variant PD-L2 IgV-Fc H15Q, V31M, S67L, Q82R, V89D (Fc fusion, not shown: a dimerising Fc or GST; small tags and cut ends)
chain: B30 chain with V30M, S66L, Q81R, V88D
B43: variant PD-L2 IgV-Fc H15Q, Q72H, Q74R, R76G, I86T (Fc fusion, not shown: a dimerising Fc or GST; small tags and cut ends)
chain: B30 chain with Q71H, Q73R, R75G, I85T
B44: variant PD-L2 IgV-Fc G28V, Q72H, R76G, I86T (Fc fusion, not shown: a dimerising Fc or GST; small tags and cut ends)
chain: B30 chain with Q14H, G27V, Q71H, R75G, I85T
B45: variant PD-L2 IgV-Fc I13V, H15Q, V31A, N45S, Q82R, V89D (Fc fusion, not shown: a dimerising Fc or GST; small tags and cut ends)
chain: B30 chain with I12V, V30A, N44S, Q81R, V88D
B46: variant PD-L2 IgV-Fc I12V, I13V, H15Q, T47A, Q82R, V89D (Fc fusion, not shown: a dimerising Fc or GST; small tags and cut ends)
chain: B30 chain with I11V, I12V, T46A, Q81R, V88D
B47: variant PD-L2 IgV-Fc I13V, H15Q, V89D (Fc fusion, not shown: a dimerising Fc or GST; small tags and cut ends)
chain: B30 chain with I12V, V88D
B48: variant PD-L2 IgV-Fc I13V, H15Q, Q82R (Fc fusion, not shown: a dimerising Fc or GST; small tags and cut ends)
chain: B30 chain with I12V, Q81R

Experiments:
[1] = target: PD-1 (Homo sapiens (Human)) (UniProt Q15116); test: flow cytometry, Jurkat/PD-1 cells
[2] = target: PD-1 (Homo sapiens (Human)) (UniProt Q15116); test: flow cytometry, Jurkat/PD-1 cells; vs wildtype PD-L2 IgV-Fc

Chain of PD-1 (Homo sapiens (Human)) (Q15116 21-288 limits assumed): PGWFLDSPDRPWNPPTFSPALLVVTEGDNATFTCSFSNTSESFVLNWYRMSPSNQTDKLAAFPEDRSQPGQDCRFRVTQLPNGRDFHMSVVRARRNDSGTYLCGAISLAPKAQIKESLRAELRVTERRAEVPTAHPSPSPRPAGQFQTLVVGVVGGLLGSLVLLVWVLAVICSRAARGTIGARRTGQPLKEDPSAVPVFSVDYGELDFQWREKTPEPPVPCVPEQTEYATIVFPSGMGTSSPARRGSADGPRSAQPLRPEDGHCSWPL

| Binder | MFI at 50 nM [1] | Fold increase over wildtype PD-L2 IgV-Fc [2] [fold] |
| --- | --- | --- |
| B1 | 1410 | 0.14 |
| B2 | 13500 | 1.37 |
| B3 | 16500 | 1.68 |
| B4 | 47200 | 4.8 |
| B5 | 2940 | 0.3 |
| B6 | 32100 | 3.26 |
| B7 | 26100 | 2.65 |
| B8 | 31800 | 3.23 |
| B9 | 529 | 0.05 |
| B10 | 12600 | 1.28 |
| B11 | 65200 | 6.62 |
| B12 | 45000 | 4.57 |
| B13 | 10400 | 1.06 |
| B14 | 6830 | 0.69 |
| B15 | 4740 | 0.48 |
| B16 | 40200 | 4.08 |
| B17 | 45500 | 4.62 |
| B18 | 73400 | 7.46 |
| B19 | 71400 | 7.26 |
| B20 | 2870 | 0.29 |
| B21 | 2880 | 0.29 |
| B22 | 2930 | 0.3 |
| B23 | 3360 | 0.34 |
| B24 | 16000 | 1.62 |

| Binder | MFI at 50 nM [1] | Fold increase over wildtype PD-L2 IgV-Fc [2] [fold] |
| --- | --- | --- |
| B25 | 25900 | 2.63 |
| B26 | 12700 | 1.29 |
| B27 | 45200 | 4.59 |
| B28 | 21600 | 2.19 |
| B29 | 24000 | 2.43 |
| B30 | 16000 | 1.63 |
| B31 | 59000 | 5.99 |
| B32 | 89100 | 9.05 |
| B33 | 54300 | 5.52 |
| B34 | 63500 | 6.45 |
| B35 | 51500 | 5.23 |
| B36 | 63300 | 6.43 |
| B37 | 17700 | 1.8 |
| B38 | 49500 | 5.03 |
| B39 | 33100 | 3.36 |
| B40 | 65600 | 6.66 |
| B41 | 26600 | 2.7 |
| B42 | 67400 | 6.85 |
| B43 | 4050 | 0.41 |
| B44 | 5560 | 0.57 |
| B45 | 68000 | 6.91 |
| B46 | 61200 | 6.22 |
| B47 | 28700 | 2.92 |
| B48 | 76100 | 7.74 |

Source: patent publication US20200040059A1
